B1: variant 6-9 (Fc fusion)
VHH: EVQLVESGGGLVQPGGSLRLSCAASGFTFDYYAMGWFRQAPGKEREFVSAIDSEGRTSYADSVKGRFTISADNSKNTAYLQMNSLKPEDTAVYYCARWGPFDIWGQGTLVTVSS
B2: variant 6-63 (Fc fusion)
VHH: EVQLVESGGGLVQPGGSLRLSCAASGQTFNMGWFRQAPGKEREFVAAIGSGGSTSYADSVKGRFTISADNSKNTAYLQMNSLKPEDTAVYYCWRLGNDYFDYWGQGTLVTVSS

Tests used:
Details in all cases: remark: other sources report otherwise
[1] = target: T1, CV S-protein construct 6 trimer TP31001F (SARS-CoV-2), P0DTC2; assay: SPR
[2] = target: T1, CV S-protein construct 6 trimer …; assay: SPR; remark: listed apart in the source
[3] = target: SARS-COV2-S1 RBD (mouse IgG2Fc tag) (SARS-CoV-2), P0DTC2; assay: FACS, S1 RBD-mFc on Vero E6 (ACE2)
[4] = target: SARS-COV2-S1 RBD (mouse IgG2Fc tag) (SARS-CoV-2), P0DTC2; assay: FACS, blocks S1 RBD-mFc binding to ACE2 on Vero E6
[5] = target: SARS-COV2-S1 RBD (mouse IgG2Fc tag) (SARS-CoV-2), P0DTC2; assay: column not explained; likely FACS, S1 RBD on Vero E6

Row | Binder | Kd [1] | Kd [2] | Competition Factor [3] | IC50 [4] | MFI Fold Decrease [5]
1 | B1 | 0.9 nM | 0.9 nM | – | – | –
2 | B2 | 0.3 nM | 0.3 nM | 7.76 | 0.74 nM | 7.76 fold

— patent publication US20210355194A1
